The target in this series is T1, nAPG07433.1-APG09980 (synthetic).
T1 chain: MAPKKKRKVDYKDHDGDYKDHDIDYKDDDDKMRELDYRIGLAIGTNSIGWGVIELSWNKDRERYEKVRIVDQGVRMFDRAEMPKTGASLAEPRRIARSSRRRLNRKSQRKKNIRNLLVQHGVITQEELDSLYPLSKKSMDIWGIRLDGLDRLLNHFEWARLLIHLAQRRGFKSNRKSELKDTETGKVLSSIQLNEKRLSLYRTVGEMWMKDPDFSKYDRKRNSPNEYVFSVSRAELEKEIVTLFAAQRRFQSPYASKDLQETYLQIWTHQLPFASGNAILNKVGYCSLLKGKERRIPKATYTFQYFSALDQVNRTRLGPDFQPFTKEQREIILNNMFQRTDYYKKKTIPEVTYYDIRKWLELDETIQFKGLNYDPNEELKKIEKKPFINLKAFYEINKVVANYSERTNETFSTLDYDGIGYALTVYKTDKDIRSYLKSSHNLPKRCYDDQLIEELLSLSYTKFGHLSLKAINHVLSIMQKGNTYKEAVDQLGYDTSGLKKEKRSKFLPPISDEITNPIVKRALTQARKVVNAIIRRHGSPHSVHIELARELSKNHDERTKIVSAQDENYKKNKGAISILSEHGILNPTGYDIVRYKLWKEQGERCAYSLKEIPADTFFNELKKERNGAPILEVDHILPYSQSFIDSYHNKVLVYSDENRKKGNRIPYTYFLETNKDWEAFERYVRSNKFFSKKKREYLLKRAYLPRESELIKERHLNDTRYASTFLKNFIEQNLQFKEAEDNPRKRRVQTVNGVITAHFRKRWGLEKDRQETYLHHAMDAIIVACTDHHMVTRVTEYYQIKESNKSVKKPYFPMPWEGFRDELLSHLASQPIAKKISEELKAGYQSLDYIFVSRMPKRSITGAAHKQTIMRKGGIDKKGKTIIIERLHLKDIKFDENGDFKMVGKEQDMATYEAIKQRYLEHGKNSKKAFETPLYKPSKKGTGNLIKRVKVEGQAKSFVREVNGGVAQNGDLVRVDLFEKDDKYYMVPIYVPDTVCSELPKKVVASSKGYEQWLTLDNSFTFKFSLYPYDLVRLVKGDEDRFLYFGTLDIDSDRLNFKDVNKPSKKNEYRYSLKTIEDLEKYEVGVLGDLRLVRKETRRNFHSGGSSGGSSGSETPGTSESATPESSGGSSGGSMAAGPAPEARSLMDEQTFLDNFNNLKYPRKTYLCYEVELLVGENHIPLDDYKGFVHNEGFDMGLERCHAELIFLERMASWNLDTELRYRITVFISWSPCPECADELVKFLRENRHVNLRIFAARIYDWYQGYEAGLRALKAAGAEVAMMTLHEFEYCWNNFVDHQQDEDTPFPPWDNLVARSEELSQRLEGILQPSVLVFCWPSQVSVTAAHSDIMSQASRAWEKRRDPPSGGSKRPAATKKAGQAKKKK
Nature of the series: cell_activity; HEK293FT; C>G predominant; PAM SEQ 152. Conditions: tags: SV40 NLS, 3xFLAG N-term; nucleoplasmin NLS C-term.

B1: SGN000930 sgRNA ; SGN000930 target (ssRNA ; dsDNA)
RNA: GAACAACUCAAAUGGAAAUGAAUAUGUCAUAGUUCCAUGAAAGCCAAAAGUGGCUUUGAUGUUUCUAUGAUAAGGGUUUCGGCCCGUGGCGUCGGGGAUCGCCUGCCCAUUCCGAUGGGCUUCUCCCCAUUUAUU
DNA 1: GAACAACTCAAATGGAAATGAATAT
DNA 2: ATATTCATTTCCATTTGAGTTGTTC
The molecule B1 registered an activity of 18.4 % mutated reads.

Values taken from patent US20240301385, “DNA MODIFYING ENZYMES AND ACTIVE FRAGMENTS AND VARIANTS THEREOF AND METHODS OF USE” (LIFEEDIT THERAPEUTICS, INC., published 2024).
